Source: paper PMC4599966

Key:
[1] = target: TAX1BP1 zinc finger domain (human) (UniProt Q86VP1); assay: NMR titration; 1H/15N HSQC of 15N-labelled TAX1BP1 zinc fingers (P0 150 μM) with increasing unlabelled ubiquitin, and the reciprocal titration of 15N-labelled ubiquitin; PBS, 10 mM β-mercaptoethanol, 20°C; shift changes of peaks of each zinc finger fitted to a single site-binding model
[2] = target: LC3C (two-hybrid bait) (UniProt Q9BXW4); assay: mammalian 2-hybrid assay; settings: CHOK.1 cells; LC3C as bait; parent: est. 79; read off a plot
[3] = target: LC3B (two-hybrid bait) (UniProt Q9GZQ8); assay: mammalian 2-hybrid assay; settings: CHOK.1 cells, LC3B as bait, read off a plot

Sequence of UniProt Q9BXW4 (Q9BXW4 whole entry): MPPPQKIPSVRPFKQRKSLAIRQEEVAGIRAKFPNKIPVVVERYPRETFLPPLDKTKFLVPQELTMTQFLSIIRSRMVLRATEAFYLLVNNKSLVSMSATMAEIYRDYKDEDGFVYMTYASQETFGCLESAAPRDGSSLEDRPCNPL

| Substance | KD, site ZF1 (N-terminal module) [1] [µM] | KD, site ZF2 (C-terminal module) [1] [µM] | response [2] | response ([3]; parent: est. 85) | response ([3]; parent: est. 98) |
| --- | --- | --- | --- | --- | --- |
| mono-ubiquitin (from UniProt P0CG48 1-76) (natural protein) | 70 | 7 | – | – | – |
| TAX1BP1 full-length wild-type (two-hybrid prey) (from UniProt Q86VP1) V144S | – | – | 34 | 20 | 27 |
